According to patent US20200024360A1 (Janssen / Centocor, published 2020):

Legend:
[1] = target: T1, recombinant human PSMA extracellular domain (ECD) protein (human, UniProt Q04609 44-750); assay: SPR ProteOn
T1 construct: also called human PSMA ECD

[2] = target: T2, recombinant chimpanzee PSMA extracellular domain (ECD) protein (Pan troglodytes, UniProt Q04609 44-750 (human entry)); assay: SPR ProteOn
T2 construct: also called Chimp PSMA ECD; PSMG8
T2 chain: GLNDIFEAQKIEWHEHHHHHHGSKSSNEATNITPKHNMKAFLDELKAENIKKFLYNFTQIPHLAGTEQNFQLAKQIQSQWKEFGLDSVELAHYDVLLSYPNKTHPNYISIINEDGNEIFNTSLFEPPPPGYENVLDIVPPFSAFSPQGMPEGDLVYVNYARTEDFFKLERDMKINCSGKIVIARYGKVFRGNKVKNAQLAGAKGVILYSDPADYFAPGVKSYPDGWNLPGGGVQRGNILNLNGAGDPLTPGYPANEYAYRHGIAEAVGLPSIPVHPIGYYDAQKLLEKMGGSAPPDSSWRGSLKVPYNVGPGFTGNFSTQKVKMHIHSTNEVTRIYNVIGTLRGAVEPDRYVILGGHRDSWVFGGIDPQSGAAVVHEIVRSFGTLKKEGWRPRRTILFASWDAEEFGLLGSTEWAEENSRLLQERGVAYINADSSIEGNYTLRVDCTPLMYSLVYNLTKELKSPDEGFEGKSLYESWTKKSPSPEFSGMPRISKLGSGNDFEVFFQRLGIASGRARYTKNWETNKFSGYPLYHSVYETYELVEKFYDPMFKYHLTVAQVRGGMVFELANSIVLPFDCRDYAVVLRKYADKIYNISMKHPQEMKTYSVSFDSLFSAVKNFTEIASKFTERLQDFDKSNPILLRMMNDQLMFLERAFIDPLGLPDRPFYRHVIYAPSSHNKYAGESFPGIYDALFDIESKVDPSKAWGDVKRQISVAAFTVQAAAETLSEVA

[3] = target: T3, recombinant cynomolgous monkey PSMA extracellular domain (ECD) protein (Macaca fascicularis, UniProt Q04609 48-750 (human entry), biotin on the Avi tag); assay: SPR ProteOn
T3 construct: also called cyno PSMA ECD; PSMG1
T3 chain: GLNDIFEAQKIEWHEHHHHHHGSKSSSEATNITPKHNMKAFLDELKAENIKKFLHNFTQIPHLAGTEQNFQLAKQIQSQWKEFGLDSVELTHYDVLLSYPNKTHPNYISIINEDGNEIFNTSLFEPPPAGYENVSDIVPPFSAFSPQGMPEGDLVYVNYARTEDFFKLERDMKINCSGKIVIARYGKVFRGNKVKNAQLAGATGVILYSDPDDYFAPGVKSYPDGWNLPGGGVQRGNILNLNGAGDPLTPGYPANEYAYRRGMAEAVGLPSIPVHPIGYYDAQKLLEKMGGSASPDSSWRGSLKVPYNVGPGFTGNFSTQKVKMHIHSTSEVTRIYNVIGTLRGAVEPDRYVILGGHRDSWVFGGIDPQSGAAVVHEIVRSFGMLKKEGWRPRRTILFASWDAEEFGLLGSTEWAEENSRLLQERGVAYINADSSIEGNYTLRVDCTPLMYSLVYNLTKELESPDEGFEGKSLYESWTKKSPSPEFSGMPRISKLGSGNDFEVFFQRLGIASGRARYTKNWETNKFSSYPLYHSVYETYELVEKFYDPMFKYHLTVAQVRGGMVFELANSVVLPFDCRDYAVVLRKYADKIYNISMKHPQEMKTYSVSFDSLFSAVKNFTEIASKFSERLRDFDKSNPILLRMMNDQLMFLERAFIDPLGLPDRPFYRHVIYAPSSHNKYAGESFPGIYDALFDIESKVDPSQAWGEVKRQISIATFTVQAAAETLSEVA

[4] = target: T4, human PSMA (prostate specific membrane antigen), full length (human, UniProt Q04609 1-750); assay: flow cytometry, bispecific antibody titrated on LNCaP cells (human PSMA), anti-human kappa light chain PE
T4 construct: On LNCaP or C4-2B cells (endogenous) or transduced HEK293F cells; also called FOLH1_HUMAN; hPSMA
T4 sequence (Q04609 whole entry): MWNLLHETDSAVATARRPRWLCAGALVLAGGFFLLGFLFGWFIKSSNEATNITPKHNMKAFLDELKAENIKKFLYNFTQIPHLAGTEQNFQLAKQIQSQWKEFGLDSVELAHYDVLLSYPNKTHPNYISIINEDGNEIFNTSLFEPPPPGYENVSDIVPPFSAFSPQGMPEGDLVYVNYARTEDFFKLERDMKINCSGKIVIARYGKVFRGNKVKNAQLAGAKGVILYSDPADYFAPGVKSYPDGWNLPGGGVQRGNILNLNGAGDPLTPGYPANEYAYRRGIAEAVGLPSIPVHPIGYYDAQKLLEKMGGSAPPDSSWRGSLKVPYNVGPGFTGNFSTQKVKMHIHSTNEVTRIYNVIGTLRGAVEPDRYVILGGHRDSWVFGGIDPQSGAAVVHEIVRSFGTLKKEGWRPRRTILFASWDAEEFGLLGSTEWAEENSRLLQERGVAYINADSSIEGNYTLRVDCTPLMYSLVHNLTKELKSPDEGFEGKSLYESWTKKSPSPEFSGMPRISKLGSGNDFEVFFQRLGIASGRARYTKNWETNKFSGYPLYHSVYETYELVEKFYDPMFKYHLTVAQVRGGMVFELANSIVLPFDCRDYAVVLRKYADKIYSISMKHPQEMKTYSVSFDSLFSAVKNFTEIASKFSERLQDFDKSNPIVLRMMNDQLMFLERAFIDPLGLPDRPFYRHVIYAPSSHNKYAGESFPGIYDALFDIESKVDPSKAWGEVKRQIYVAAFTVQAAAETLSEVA
Protocol: (§1) PSMA×CD3 bispecific antibodies were tested for binding to PSMA positive cell lines LNCAP, human PSMA-HEK, Chimpanzee-PSMA-HEK and Cynomolgous monkey PSMA-HEK. To assess the binding capabilities of the PSMA bispecific antibodies, the cell-binding assay was utilized (described previously). Briefly, PSMA expressing tumor cells are bound by bispecific antibodies at known concentrations and the bound antibody is detected by an anti-human kappa light chain PE conjugated detection reagent (Invitrogen). The Mean Fluorescents Intensity (MFI) is the measure of bound bispecific antibody. The MFI is converted to a relative EC₅₀. EC₅₀ is a commonly used dose-response curve, where the half maximal effective concentration or the EC₅₀ point is defined as the inflection point of the curve. EC₅₀ s were determined by measuring cell bound bispecific and known concentrations. […] The dose response curves were then diluted down to that of background or no bispecific binding. The inflection point of this curve reflects the EC₅₀ point. The calculated EC₅₀ is determined by taking the ug/ml amount of bispecific antibody at the EC₅₀ point and converting it to a molarity value based on the MW of the bispecific antibody. Bispecific antibodies were normalized for protein concentration and then incubated with the same number of cells expressing either human or cyno PSMA. […]

[5] = target: T4, human PSMA (prostate specific membrane …); assay: as above; remark: listed apart in the source
Protocol: PSMA×CD3 bispecific antibodies were tested for binding to PSMA positive cell lines LNCAP, human PSMA-HEK, Chimpanzee-PSMA-HEK and Cynomolgous monkey PSMA-HEK. To assess the binding capabilities of the PSMA bispecific antibodies, the cell-binding assay was utilized (described previously). Briefly, PSMA expressing tumor cells are bound by bispecific antibodies at known concentrations and the bound antibody is detected by an anti-human kappa light chain PE conjugated detection reagent (Invitrogen). The Mean Fluorescents Intensity (MFI) is the measure of bound bispecific antibody. The MFI is converted to a relative EC₅₀. EC₅₀ is a commonly used dose-response curve, where the half maximal effective concentration or the EC₅₀ point is defined as the inflection point of the curve. EC₅₀ s were determined by measuring cell bound bispecific and known concentrations. […] The dose response curves were then diluted down to that of background or no bispecific binding. The inflection point of this curve reflects the EC₅₀ point. The calculated EC₅₀ is determined by taking the ug/ml amount of bispecific antibody at the EC₅₀ point and converting it to a molarity value based on the MW of the bispecific antibody. Bispecific antibodies were normalized for protein concentration and then incubated with the same number of cells expressing either human or cyno PSMA. The MFI at each concentration was collected by flow cytometry and plotted as a function of concentration. Data was transformed via log 10 and then plotted. Nonlinear regression of binding curves was done to determine EC₅₀ s. These relative values were used for ranking PSMA binding to target cells.

[6] = target: T4, human PSMA (prostate specific membrane …); assay: flow cytometry, bispecific antibody titrated on human PSMA HEK cells, anti-human kappa light chain PE
Protocol: as §1

[7] = target: T5, human CD3ε on primary human T cells (human, UniProt P07766 23-207); assay: FACS, primary human T cells
T5 construct: whole, on cells; Part of the TCR-CD3 complex on the cells; also called cell-surface CD3ε; CD3E
T5 sequence (P07766 23-207): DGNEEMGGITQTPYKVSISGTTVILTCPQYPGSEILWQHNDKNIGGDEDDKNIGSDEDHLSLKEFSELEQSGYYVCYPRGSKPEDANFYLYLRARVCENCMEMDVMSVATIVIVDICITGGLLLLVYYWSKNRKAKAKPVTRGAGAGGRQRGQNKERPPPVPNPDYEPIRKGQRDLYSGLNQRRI

B1: PSMB123 (antibody, human IgG4 S228P, kappa, F234A L235A, V domains shown)
VH: EVQLVQSGAEVKKPGESLKISCKGSGYSFTSYWIGWVRQMPGKGLEWMGIIYPGDSDTRYSPSFQGQVTISADKSISTAYLQWSSLKASDTAMYYCARGLPIWYLDYWGQGTLVTVSS
VL: EIVLTQSPATLSLSPGERATLSCRASQSVASDLAWYQQKPGQAPRLLIYFASNRATGIPARFSGSGSGTDFTLTISSLEPEDFAVYYCQQSITWPFTFGQGTKVEIKR
notes: IgG4 with S228P, F234A, L235A; also called mAb of Fab PSMB55
**Q.** For B1, which Kd [1] is on record?
**A.** 9.03 nM

**Q.** And the Kd [2]?
**A.** 14.3 nM

**Q.** And the Kd [3]?
**A.** 66.7 nM

B2: PSMB127 (antibody, human IgG4 S228P, kappa, F234A L235A, V domains shown)
VH: EVQLLESGGGLVQPGGSLRLSCAASGFTFKSDAMHWVRQAPGKGLEWVSEISGSGGYTNYADSVKGRFTISRDNSKNTLYLQMNSLRAEDTAVYYCARDSYDSSLYVGDYFDYWGQGTLVTVSS
VL: EIVLTQSPATLSLSPGERATLSCRASQSVSSYLAWYQQKPGQAPRLLIYDASNRATGIPARFSGSGSGTDFTLTISSLEPEDFAVYYCQQRSNWPLTFGQGTKVEIKR
notes: IgG4 with S228P, F234A, L235A; also called mAb of Fab PSMB83
**Q.** How did the Kd [1] turn out when B2 was run?
**A.** 12 nM

**Q.** And the Kd [2]?
**A.** 12.8 nM

**Q.** And the Kd [3]?
**A.** 6.68 nM

B3: PS3B7 (M59) (bispecific antibody, human IgG4 S228P, kappa, lambda, F234A L235A)
heavy chain, PSMA arm (PSMB87, Fab PSMB58): not shown
light chain, PSMA arm (PSMB87, Fab PSMB58): not shown
heavy chain, CD3 arm (CD3B217): EVQLLESGGGLVQPGGSLRLSCAASGFTFNTYAMNWVRQAPGKGLEWVARIRSKYNNYATYYADSVKGRFTISRDNSKNTLYLQMNSLRAEDTAVYYCVKHGNFGNSYVSWFAYWGQGTLVTVSSASTKGPSVFPLAPCSRSTSESTAALGCLVKDYFPEPVTVSWNSGALTSGVHTFPAVLQSSGLYSLSSVVTVPSSSLGTKTYTCNVDHKPSNTKVDKRVESKYGPPCPPCPAPEAAGGPSVFLFPPKPKDTLMISRTPEVTCVVVDVSQEDPEVQFNWYVDGVEVHNAKTKPREEQFNSTYRVVSVLTVLHQDWLNGKEYKCKVSNKGLPSSIEKTISKAKGQPREPQVYTLPPSQEEMTKNQVSLTCLVKGFYPSDIAVEWESNGQPENNYKTTPPVLDSDGSFLLYSKLTVDKSRWQEGNVFSCSVMHEALHNHYTQKSLSLSLGK
light chain, CD3 arm (CD3B217): QAVVTQEPSLTVSPGGTVTLTCRSSTGAVTTSNYANWVQQKPGQAPRGLIGGTNKRAPGTPARFSGSLLGGKAALTLSGAQPEDEAEYYCALWYSNLWVFGGGTKLTVLGQPKAAPSVTLFPPSSEELQANKATLVCLISDFYPGAVTVAWKADSSPVKAGVETTTPSKQSNNKYAASSYLSLTPEQWKSHRSYSCQVTHEGSTVEKTVAPTECS
notes: also called PSMB87 x CD3B217
**Q.** How did the “EC50 (read off the curve)” value [4] turn out when B3 was run?
**A.** ~1 µg/mL

**Q.** What about the “EC50 (read off the curve)” value [5] of the same binder?
**A.** ~1 µg/mL

**Q.** And the “EC50 (read off the curve)” value [6]?
**A.** ~1 µg/mL

B4: PS3B12 (M87) (bispecific antibody, human IgG4 S228P, kappa, lambda, F234A L235A)
heavy chain, PSMA arm (PSMB130): not shown
light chain, PSMA arm (PSMB130): not shown
heavy chain, CD3 arm (CD3B217): EVQLLESGGGLVQPGGSLRLSCAASGFTFNTYAMNWVRQAPGKGLEWVARIRSKYNNYATYYADSVKGRFTISRDNSKNTLYLQMNSLRAEDTAVYYCVKHGNFGNSYVSWFAYWGQGTLVTVSSASTKGPSVFPLAPCSRSTSESTAALGCLVKDYFPEPVTVSWNSGALTSGVHTFPAVLQSSGLYSLSSVVTVPSSSLGTKTYTCNVDHKPSNTKVDKRVESKYGPPCPPCPAPEAAGGPSVFLFPPKPKDTLMISRTPEVTCVVVDVSQEDPEVQFNWYVDGVEVHNAKTKPREEQFNSTYRVVSVLTVLHQDWLNGKEYKCKVSNKGLPSSIEKTISKAKGQPREPQVYTLPPSQEEMTKNQVSLTCLVKGFYPSDIAVEWESNGQPENNYKTTPPVLDSDGSFLLYSKLTVDKSRWQEGNVFSCSVMHEALHNHYTQKSLSLSLGK
light chain, CD3 arm (CD3B217): QAVVTQEPSLTVSPGGTVTLTCRSSTGAVTTSNYANWVQQKPGQAPRGLIGGTNKRAPGTPARFSGSLLGGKAALTLSGAQPEDEAEYYCALWYSNLWVFGGGTKLTVLGQPKAAPSVTLFPPSSEELQANKATLVCLISDFYPGAVTVAWKADSSPVKAGVETTTPSKQSNNKYAASSYLSLTPEQWKSHRSYSCQVTHEGSTVEKTVAPTECS
notes: also called PSMB130 x CD3B217
**Q.** With B4 as the binder, how does the “EC50 (read off the curve)” value [4] read?
**A.** ~1 µg/mL

B5: CD3B144 (antibody, V domains shown)
VH: EVQLVESGGGLVQPGGSLRLSCAASGFTFNTYAMNWVRQAPGKGLEWVARIRSKYNNYATYYAASVKGRFTISRDDSKNSLYLQMNSLKTEDTAVYYCARHGNFGNSYVSWFAYWGQGTLVTVSS
VL: QSVLTQPPSVSAAPGQKVTISCRSSTGAVTTSNYANWVQQLPGTAPKGLIGGTNKRAPGIPDRFSGSKSGTSATLGITGLQTGDEADYYCALWYSNLWVFGGGTKLTVL
notes: also called CD3H141/CD3L64
**Q.** Does B5 bind [7]?
**A.** no binding (tested: 10 µg/ml (normalised))

B6: CD3B152 (antibody, V domains shown)
VH: EVQLLESGGGLVQPGGSLRLSCAASGFTFNTYAMNWVRQAPGKGLEWVARIRSKYNNYATYYADSVKGRFTISRDNSKNTLYLQMNSLRAEDTAVYYCVKHGNFGNSYVSWFAYWGQGTLVTVSS
VL: QSVLTQPPSVSAAPGQKVTISCRSSTGAVTTSNYANWVQQLPGTAPKGLIGGTNKRAPGIPDRFSGSKSGTSATLGITGLQTGDEADYYCALWYSNLWVFGGGTKLTVL
notes: also called CD3H143/CD3L64
**Q.** Does B6 bind [7]?
**A.** no binding (tested: 10 µg/ml (normalised))

B7: PSMB130 (antibody, human IgG4 S228P, kappa, F234A L235A, V domains shown)
VH: QVQLVQSGAEVKKPGSSVKVSCKASGGTFKSYDISWVRQAPGQGLEWMGGIIPIEGTANYAQKFQGRVTITADESTSTAYMELSSLRSEDTAVYYCARDYPAGYGFDYWGQGTLVTVSS
VL: not shown
notes: IgG4 with S228P, F234A, L235A; also called mAb of Fab PSMB86
**Q.** B7 was tested. Which Kd [1] did it give?
**A.** 29.6 nM

**Q.** What about the Kd [2] of the same binder?
**A.** 31.7 nM
